Test results taken from PMC5681435 (2017).

B1: untagged p16INK4a [not stated] / GSTCDK4 [human] (parent complex)
chain 1: MEPAAGSSMEPSADWLATAAARGRVEEVRALLEAGALPNAPNSYGRRPIQVMMMGSARVAELLLLHGAEPNCADPATLTRPVHDAAREGFLDTLVVLHRAGARLDVRDAWGRLPVDLAEELGHRDVARYLRAAAGGTRGSNHARIDAAEGPSDIPD
chain 2: MATSRYEPVAEIGVGAYGTVYKARDPHSGHFVALKSVRVPNGGGGGGGLPISTVREVALLRRLEAFEHPNVVRLMDVCATSRTDREIKVTLVFEHVDQDLRTYLDKAPPPGLPAETIKDLMRQFLRGLDFLHANCIVHRDLKPENILVTSGGTVKLADFGLARIYSYQMALTPVVVTLWYRAPEVLLQSTYATPVDMWSVGCIFAEMFRRKPLFCGNSEADQLGKIFDLIGLPPEDDWPRDVSLPRGAFPPRGPRPVQSVVPEMEESGAQLLLEMLTFNPHKRISAFRALQHSYLHKDEGNPE

Variants of: B1
Assay: HTRF displacement assay; CDK4 8 nM; value read at the highest [INK] point, about 500 nM; read off a plot

| response | Variant |
| --- | --- |
| ~58 % Inhibition | chain 1 D84N |
